According to patent US12703739 (VANDERBILT UNIVERSITY, dated 2026):

Columns and labels:
Assay in all cases: cell-based or functional assay
Gn of RVFV-ZH501 = Gn of RVFV-ZH501 (Rift Valley Fever Virus strain ZH501)
Gn of RVFV-SA51 = Gn of RVFV-SA51 (Rift Valley Fever Virus strain SA51)
Gn of RVFV-MP-12 = Gn of RVFV-MP-12 (Rift Valley Fever Virus strain MP-12)
Gc of RVFV-ZH501 = Gc of RVFV-ZH501 (Rift Valley Fever Virus strain ZH501)
Gc of RVFV-SA51 = Gc of RVFV-SA51 (Rift Valley Fever Virus strain SA51)
Gc of RVFV-MP-12 = Gc of RVFV-MP-12 (Rift Valley Fever Virus strain MP-12)

Row | Binder | Fold-Change ZH501/MP-12 (ratio of neutralization IC50s) (Gn of RVFV-ZH501) | IC50 (ng/ml), neutralization of RVFV-ZH501 (Gn of RVFV-ZH501) | IC50 (ng/ml), neutralization of RVFV-SA51 (Gn of RVFV-SA51) | IC50 (ng/ml), neutralization of RVFV-MP-12 (Gn of RVFV-MP-12) | Fold-Change ZH501/MP-12 (ratio of neutralization IC50s) (Gc of RVFV-ZH501) | IC50 (ng/ml), neutralization of RVFV-ZH501 (Gc of RVFV-ZH501) | IC50 (ng/ml), neutralization of RVFV-SA51 (Gc of RVFV-SA51) | IC50 (ng/ml), neutralization of RVFV-MP-12 (Gc of RVFV-MP-12)
1 | RVFV-436 (antibody, V domains shown) VH: QVQLHESGPGLVKPSETLSLTCGVSGYTISSDYYWGWIRQPPGKGLEWIGSIYQNGHTYYNPSLKSRVTISVDTSKNQFSLELSSVTAADTAVYYCARRGDCGADCYHFDYWGRGTAVTVSS VL: SYEVTQPLSVSVSPGQTASITCSGEKLENKYVSWYQQKPGQSPVLVMYQDFKRPSGIPERFSGSNSGNTATLTISGTQAMDEADYYCQAWDRSTFYVFGTGTKVTVVG | 1.8 fold | 4.57 ng/mL | 4.57 ng/mL | 2.5 ng/mL |  |  |  | 
2 | RVFV-429 (antibody, V domains shown) VH: QVQLVQSGAEVKKPGSSVKVSCRASGGTFSSYTISWVRQAPGQGLEWMGGIIPILGLTKFAQKFQDRVTITADISATTTYMELSSLTSEDTAVYYCARNGEQLEWSYYYGMDVWGQGTTVTVSS VL: not shown | 5.1 fold | 4.57 ng/mL | 4.57 ng/mL | 0.9 ng/mL |  |  |  | 
3 | RVFV-379 (antibody, V domains shown) VH: QVQLQESGPGLVKPSQTLSLTCTVSGDSISGGDYYWSWIRRPAGEGLEWIGRVHTTGSTDYNPSLRTRVTISIDTSKNHFFLKMTSVTAADTAVYYCAREGDYSAWFDPWGQGALVTVSS VL: DIQMTQSPSSLSASIGDRVTITCRASQHIESFLNWYQQKPGKAPKLLIYIASTLQGGVPSRFSGRGFGTDFTLTINSLQPEDFATYYCQQSYTISPITFGQGTRLEIK | 3.5 fold | 4.57 ng/mL | 13 ng/mL | 1.3 ng/mL |  |  |  | 
4 | RVFV-426 (antibody, V domains shown) VH: QVQLQESGPGLLKPSQTLSLTCGVSGDSITSTGDSWTWIRQPPGKGLEWIGYIYYSGSAYYNPSLKSRVTISVDTSKNQFSLRLRSVTAADTAVYYCARALEYGAGSWAAAFWGQGILVTVSS VL: SYEVTQPPSVSVSPGQTASITCSGDKLVERYVSWYQQKPGQSPLLVIYHDIKRPSGIPERFSGSNSGNTATLTISGTQPMDEADYYCQAWDSSTVLFGGGTKLTVL | 4.5 fold | 41 ng/mL | 120 ng/mL | 9.1 ng/mL |  |  |  | 
5 | RVFV-296 (antibody, V domains shown) VH: QVQLVQSGSELKKSGASVKVSCRASGYTFTTYVMNWVRQAPGQGLEWMGWINTNTGNPTYAQGFTGRFVFSLDTSVSTAYLQINSLKAEDTAVYYCAREYNSFDYWGQGTLVTVSS VL: QSVLTQPPSVSGAPGQRVTISCTGSSSNIGAGYDVHWYQQLPGTAPKLLIYDNNNRPSGVPDRFSGSRSGTSTSLAITGLQAEDEADYYCQSYDFRLSGSVFGGGTKVTVL | 0.2 fold | 120 ng/mL | 120 ng/mL | 638 ng/mL |  |  |  | 
6 | RVFV-250 (antibody, V domains shown) VH: QVQLQESGPGLAKPSETLSLTCTVSGGSISSYFWSWIRQPAGKGLEWIGRIHTTGSTNYNPSLKNRVIMSVDTSKNQFSLNLSSVTAADTAVYYCAREGTAFDIWGQGTMVTVSS VL: SYELTQSPSVSVSPGQTASIPCSGDKLGDKYACWYQQKPGQSPVLVIYQDTKRPSGIPERFSGSNSGNTATLTISETQAMDEADYYCQAWDSSTPWVFGGGTKLTVL |  |  |  |  | 2.4 fold | 120 ng/mL | 120 ng/mL | 51 ng/mL
7 | RVFV-401 (antibody, V domains shown) VH: QITFKESGPTLVKPTQTLTLTCTFSGFSLSTSGVGVGWIRQPPGKALEWLALLYWNDDKRYTPSLRSRLTITKDTSKNQVVLTMTDMDPVDTATYYCARKPRDDFLRLTMMGGGDYFDYWGQGTLVTVSS VL: SYELTQPPSVSVSPGQTARITCSGDALPDQYAYWYQQKPGQAPVLVLYKDNERPSGIPERFSGSTSGTTVTLTISGVQAEDEADYYCQSADTSTAYHVIFGGGTKLTVL | 0.2 fold | 370 ng/mL | 1110 ng/mL | 2120 ng/mL |  |  |  | 
8 | RVFV-121 (antibody, V domains shown) VH: QMQLQESGPGLVKPSGTLSLTCAVSGDSISTSTWWSWVRQSPGKGLEWIGEIYHSESTNYNPSLKSRVSLSLDKSKNQLSLRLSSVTAADTGVYYCARGSLVFDYWGQGAQVVVSS VL: EIVMTQSPATLSVSPGERATLSCRASQSVSSNLAWYQQKPGQAPRLLIYAASTRATGIPARFSGSGSGTEFTLTISSLQSEDFAVYYCQQFNNWPRTFGQGTKVEIK |  |  |  |  | 31.7 fold | 1110 ng/mL | 1110 ng/mL | 35 ng/mL
9 | RVFV-326 (antibody, V domains shown) VH: EAQLVESGGGLVKPGGSLRLSCAASGFSFSYAWMSWVRRLPGKGLEWVGRIKGKADGETTDYAAPVKGRFTISRDDSKTTVYLQMNTLKIEDTGVYYCTTDIGDFYDSIGYSYTDYWGQGTLVTVSS VL: EIVLTQSPATLSLSPGERATLSCRASQSVSSYLAWYQQKPGQAPRLLIYDASNRATGIPVRFSGSGSGTDFTLTISSLEPEDFALYYCQQRSDWPPTFGQGTKVEIK |  |  |  |  | 15.9 fold | 1110 ng/mL | 370 ng/mL | 70 ng/mL
10 | RVFV-381 (antibody, V domains shown) VH: QEQLVESGGGVVQPGRSLRLSCAASGFTLRGYGIYWVRQAPGKGLEWVAVISHDGKNESYTDSVKGRFSISRDKSKNTVFLQMNSLTTQDTSVYYCARWTEGSEEFYYHGLDVWGQGTTVTVSP VL: SYELTQPPSVSVSPGQTARITCSGHLLPKQYAYWYQQKPGQAPTLVIYADYNRASGIPERFSGASSGTTVTLTITGVKAEDQADYYCQSIDNRFHYPMIFGGGTKLTVL | 2.3 fold | 10000 ng/mL | 10000 ng/mL | 4440 ng/mL |  |  |  | 
11 | RVFV-226 (antibody, V domains shown) VH: EVQLVESGGGLVQPGRSLRLSCAASGFTFDDYAMHWVRQAPGKGLEWVSGISWNSGSIGYVDSVKGRFTISRDNAKNSLYLQMNSLRAEDTALYYCAKGLVGAIHDAFDIWGQGTMVTVSS VL: not shown | 1.3 fold | 10000 ng/mL | 3330 ng/mL | 7690 ng/mL |  |  |  | 
12 | RVFV-405 (antibody, V domains shown) VH: EVQLVESGGGLVQPGGSLRLSCAASGFTFSSFEMNWVRQAPGKGLEWVSYISRSGTTKHYADSVKGRFAISRDDAKNSLYLQMNSLRAEDTAVYYCARGGARVLQAPLDYWGQGTLVTVSS VL: SYELTQPPSVSVAPGETARITCGGTNIGNKSVRWYQQKPGQAPVLVIYYDNDRPSGIPERFSGSNSGNTATLTISRVEAGDEADYYCQVWDNSSDHAVFGGGTKLTVL | 1 fold | 30000 ng/mL | 30000 ng/mL | 30000 ng/mL |  |  |  | 
13 | RVFV-249 (antibody, V domains shown) VH: QVLLVQSEAEVRKPGASVKISCKTSGYTFTTYFMHWVRQAPGQGLEWVAIVDPSTGNTGYAQRFQGRVTVTRDTSTGTLFMELTSLTTEDTAMYYCGRDRGSRAVDSWGQGTLVTVFS VL: QSVLTQPPSVSGAPGQRVTISCSGSSSNVGPNTVSWYQQLPGVAPKLLIYRNNQRPSGVPDRFSGSKFGTSASLVIGGLQSEDEADYYCAAWDDSLNGHMVFGGGTKVAVL |  |  |  |  | 4.4 fold | 30000 ng/mL | 30000 ng/mL | 6790 ng/mL
